Test results from patent US20160237160A1 (Bayer, published 2016).

Tests used:
Test in all cases: ELISA, Fc fusion protein coated at 1 µg/ml, TPP-2090 at 75 nM, Amplex Red;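 also: binding reported as ELISA signal intensity in Rfu against a panel of TNF receptor superfamily members presented as Fc fusion proteins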
[1] = biological target: T1, Trail-R1 (TNFRSF10A) Fc fusion protein (Human, UniProt O00220 24-239)
T1 construct: extracellular domain; bought
Description: (§1) Shown is the result of an ELISA: Y is “ELISA signal intensity [Rfu]”; X are “TNF receptor superfamily proteins tested (Fc-fusion proteins)”: 1 is “TWEAKR”; 2 is “TWEAKR”; 3 is “Apo-3”; 4 is “Trail-R1”; 5 is “Trail-R2”; 6 is “CD385”; 7 is “CD95”; 8 is “Rank”; 9 is “TNF-R1”; 10 is “TNF-R2”; 11 is “BAFF-R”; 12 is “DcR3”; 13 is “BCMA”; 14 is “TACI”; 15 is “OX40”; 16 is “CD30”; 17 is “CD27”; 18 is “CD40”; 19 is “Osteoprotegerin”; 20 is “EDAR”; 21 is “GITR”; 22 is “HVEM”; 23 is “NGF R”; 24 is “Trail R3”; 25 is “Lymphotioxin B R”; 26 is “Trail R4”; 27 is “EDA2R”; 28 is “TROY”; 29 is “RELT”; 30 is “4-1BB”.
(§2) To collect dose-response data a serial 3fold dilution of biotinylated IgG starting with a concentration of 2 μM was used as soluble binding partner. Detection was done with anti-hIgG1-HRP and Amplex Red.

[2] = biological target: T2, TNF-R2 (TNFRSF1B) Fc fusion protein (Human, UniProt P20333 23-257)
T2 construct: extracellular domain; bought
T2 sequence (looked up): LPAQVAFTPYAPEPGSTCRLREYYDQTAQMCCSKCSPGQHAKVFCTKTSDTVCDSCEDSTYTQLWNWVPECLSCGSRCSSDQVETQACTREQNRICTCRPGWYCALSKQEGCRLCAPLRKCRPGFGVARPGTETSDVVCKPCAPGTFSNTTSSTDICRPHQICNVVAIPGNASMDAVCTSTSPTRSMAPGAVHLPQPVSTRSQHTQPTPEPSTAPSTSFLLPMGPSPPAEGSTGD
Description: as §1, §2

[3] = biological target: T3, DcR3 (TNFRSF6B) Fc fusion protein (Human, UniProt O95407 30-300)
T3 construct: extracellular domain; bought
T3 sequence (looked up): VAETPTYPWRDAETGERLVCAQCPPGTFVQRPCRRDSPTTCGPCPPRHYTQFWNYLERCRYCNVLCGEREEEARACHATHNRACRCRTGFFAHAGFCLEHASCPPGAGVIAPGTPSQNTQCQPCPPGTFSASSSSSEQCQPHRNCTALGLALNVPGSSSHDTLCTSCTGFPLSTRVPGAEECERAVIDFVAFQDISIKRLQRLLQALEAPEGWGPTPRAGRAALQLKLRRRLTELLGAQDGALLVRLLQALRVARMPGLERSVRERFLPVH
Description: as §1, §2

[4] = biological target: T4, CD30 (TNFRSF8) Fc fusion protein (Human, UniProt P28908 19-385)
T4 construct: extracellular domain; bought
T4 sequence (looked up): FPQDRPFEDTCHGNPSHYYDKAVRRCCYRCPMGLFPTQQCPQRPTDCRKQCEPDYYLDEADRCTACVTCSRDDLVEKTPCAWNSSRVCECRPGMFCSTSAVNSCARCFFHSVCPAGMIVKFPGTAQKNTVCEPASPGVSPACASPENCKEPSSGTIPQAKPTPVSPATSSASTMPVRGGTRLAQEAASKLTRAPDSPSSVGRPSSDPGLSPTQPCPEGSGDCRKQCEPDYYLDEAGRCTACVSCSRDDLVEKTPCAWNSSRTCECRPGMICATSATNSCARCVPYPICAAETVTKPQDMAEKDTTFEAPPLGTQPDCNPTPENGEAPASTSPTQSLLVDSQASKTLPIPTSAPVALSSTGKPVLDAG
Description: as §1, §2

[5] = biological target: T5, CD27 (TNFRSF7) Fc fusion protein (Human, UniProt P26842 20-191)
T5 construct: extracellular domain; bought
Description: as §1, §2

[6] = biological target: T6, CD40 (TNFRSF5) Fc fusion protein (Human, UniProt P25942 21-193)
T6 construct: extracellular domain; bought
Description: as §1, §2

[7] = biological target: T7, GITR (TNFRSF18) Fc fusion protein (Human, UniProt Q9Y5U5 26-162)
T7 construct: extracellular domain; bought
T7 sequence (looked up): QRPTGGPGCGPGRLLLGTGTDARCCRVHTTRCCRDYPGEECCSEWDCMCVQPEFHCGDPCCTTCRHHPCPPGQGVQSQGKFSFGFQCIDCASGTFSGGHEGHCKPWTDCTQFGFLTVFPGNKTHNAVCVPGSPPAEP
Description: as §1, §2

[8] = biological target: T8, Trail R 4 (TNFRSF10D) Fc fusion protein (Human, UniProt Q9UBN6 56-211)
T8 construct: extracellular domain; bought
T8 sequence (looked up): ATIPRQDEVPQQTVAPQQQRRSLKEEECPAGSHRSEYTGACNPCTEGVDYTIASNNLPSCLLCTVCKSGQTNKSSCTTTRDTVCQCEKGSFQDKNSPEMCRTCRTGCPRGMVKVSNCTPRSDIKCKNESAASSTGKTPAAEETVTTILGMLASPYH
Description: as §1, §2

[9] = biological target: T9, EDA2R (TNFRSF27) Fc fusion protein (Human, UniProt Q9HAV5 1-138)
T9 construct: extracellular domain; bought
T9 sequence (looked up): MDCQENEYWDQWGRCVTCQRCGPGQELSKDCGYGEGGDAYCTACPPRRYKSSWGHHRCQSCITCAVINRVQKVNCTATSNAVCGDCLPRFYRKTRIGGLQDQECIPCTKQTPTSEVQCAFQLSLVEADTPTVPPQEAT
Description: as §1, §2

[10] = biological target: T10, TROY (TNFRSF19) Fc fusion protein (Human, UniProt Q9NS68 30-170)
T10 construct: extracellular domain; bought
T10 sequence (looked up): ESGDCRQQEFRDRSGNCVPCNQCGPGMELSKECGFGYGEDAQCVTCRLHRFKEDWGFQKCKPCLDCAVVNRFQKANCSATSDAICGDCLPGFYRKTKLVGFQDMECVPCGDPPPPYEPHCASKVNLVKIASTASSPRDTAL
Description: as §1, §2

[11] = biological target: T11, RELT (TNFRSF19L) Fc fusion protein (Human, UniProt Q969Z4 26-162)
T11 construct: extracellular domain; bought
T11 sequence (looked up): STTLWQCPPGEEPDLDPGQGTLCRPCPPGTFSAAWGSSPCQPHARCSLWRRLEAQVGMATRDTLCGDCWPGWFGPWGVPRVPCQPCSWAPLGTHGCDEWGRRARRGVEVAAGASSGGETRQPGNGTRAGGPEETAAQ
Description: as §1, §2

[12] = biological target: T12, 4-1BB (TNFRSF9) Fc fusion protein (Human, UniProt Q07011 24-186)
T12 construct: extracellular domain; bought
Description: as §1, §2

Measured: binding result

T6 sequence (P25942 21-193): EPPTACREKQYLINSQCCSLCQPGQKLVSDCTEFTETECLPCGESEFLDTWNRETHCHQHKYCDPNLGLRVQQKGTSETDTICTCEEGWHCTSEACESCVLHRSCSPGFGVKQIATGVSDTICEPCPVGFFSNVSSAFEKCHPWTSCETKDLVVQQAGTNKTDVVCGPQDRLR
T1 sequence (O00220 24-239): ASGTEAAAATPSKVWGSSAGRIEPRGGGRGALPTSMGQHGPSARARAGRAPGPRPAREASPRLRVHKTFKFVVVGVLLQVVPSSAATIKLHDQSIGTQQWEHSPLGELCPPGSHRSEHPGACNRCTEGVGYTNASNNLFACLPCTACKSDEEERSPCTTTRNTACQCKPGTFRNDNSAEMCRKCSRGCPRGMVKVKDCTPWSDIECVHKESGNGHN
T12 sequence (Q07011 24-186): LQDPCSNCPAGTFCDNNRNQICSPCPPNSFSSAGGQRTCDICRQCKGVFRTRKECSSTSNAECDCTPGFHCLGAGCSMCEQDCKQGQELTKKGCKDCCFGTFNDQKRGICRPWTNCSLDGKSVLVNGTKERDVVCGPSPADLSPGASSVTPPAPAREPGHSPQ
T5 sequence (P26842 20-191): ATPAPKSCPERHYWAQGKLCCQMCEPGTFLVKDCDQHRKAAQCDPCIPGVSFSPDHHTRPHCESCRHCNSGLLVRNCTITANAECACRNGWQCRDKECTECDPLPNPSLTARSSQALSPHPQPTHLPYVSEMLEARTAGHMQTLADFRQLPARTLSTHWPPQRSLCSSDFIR

B1: TPP-2090 (antibody, human IgG1, kappa, V domains shown)
VH: EVQLLESGGGLVQPGGSLRLSCAASGFTFSPYPMIWVRQAPGKGLEWVSYISPSGGSTHYADSVKGRFTISRDNSKNTLYLQMNSLRAEDTAVYYCARGGDTYFDYFDYWGQGTLVTVSS
VL: DIQMTQSPSSLSASVGDRVTITCRASQSISGYLNWYQQKPGKAPKLLIYQASSLQSGVPSRFSGSGSGTDFTLTISSLQPEDFATYYCQQSYTSPFITFGQGTKVEIKR
notes: Human IgG1
no binding (tested: 75 nM): [1] | [2] | [3] | [4] | [5] | [6] | [7] | [8] | [9] | [10] | [11] | [12]
